Publication doi:10.1101/276808 (bioRxiv, 2018)
Where “and” joins values, the source holds several entries; their conditions need not be identical. Equal values may be shown once.

Molecular target: the molecule itself
Assay: native gel or EMSA

B1: Lrp (natural protein, Escherichia coli, UniProt P0ACJ0 1-164, looked up)
chain: MVDSKKRPGKDLDRIDRNILNELQKDGRISNVELSKRVGLSPTPCLERVRRLERQGFIQGYTALLNPHYLDASLLVFVEITLNRGAPDVFEQFNTAVQKLEEIQECHLVSGDFDYLLKTRVPDMSAYRKLLGETLLRLPGVNDTRTYVVMEEVKQSNRLVIKTR
  stoichiometry N: 8 and 16
